The text below walks through data of PMC11272584 (Nature Metabolism, 2024).

Substitutions are numbered along the chain they refer to. Names and notes keep the numbering of the source. A value given as a limit tells only on which side of the number the result lay.

T1: GIPR S64P (Homo sapiens, UniProt P48546, S64P)
T1 construct: host or cells: HEK293
T1 sequence (P48546 22-466 S64P): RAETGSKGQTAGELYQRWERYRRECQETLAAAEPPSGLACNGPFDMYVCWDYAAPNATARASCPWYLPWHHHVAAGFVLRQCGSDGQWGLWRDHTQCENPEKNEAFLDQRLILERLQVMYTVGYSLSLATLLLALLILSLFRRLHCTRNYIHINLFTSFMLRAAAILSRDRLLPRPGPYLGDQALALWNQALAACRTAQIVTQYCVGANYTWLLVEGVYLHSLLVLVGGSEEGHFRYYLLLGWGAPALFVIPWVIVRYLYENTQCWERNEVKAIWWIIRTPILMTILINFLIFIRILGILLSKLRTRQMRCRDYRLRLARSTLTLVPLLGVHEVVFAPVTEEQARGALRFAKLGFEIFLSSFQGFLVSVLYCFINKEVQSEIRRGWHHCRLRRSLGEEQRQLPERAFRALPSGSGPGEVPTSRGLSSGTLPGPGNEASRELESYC

T2: GIPR M67R (Homo sapiens, UniProt P48546, M67R)
T2 construct: host or cells: HEK293
T2 sequence (P48546 22-466 M67R): T1 sequence (P48546 22-466 S64P) with P43S, M46R

T3: GIPR Y73H (Homo sapiens, UniProt P48546, Y73H)
T3 construct: host or cells: HEK293
T3 sequence (P48546 22-466 Y73H): T1 sequence (P48546 22-466 S64P) with P43S, Y52H

T4: GIPR V99I (Homo sapiens, UniProt P48546, V99I)
T4 construct: host or cells: HEK293
T4 sequence (P48546 22-466 V99I): T1 sequence (P48546 22-466 S64P) with P43S, V78I

T5: GIPR R101H (Homo sapiens, UniProt P48546, R101H)
T5 construct: host or cells: HEK293
T5 sequence (P48546 22-466 R101H): T1 sequence (P48546 22-466 S64P) with P43S, R80H

T6: GIPR T116R (Homo sapiens, UniProt P48546, T116R)
T6 construct: host or cells: HEK293
T6 sequence (P48546 22-466 T116R): T1 sequence (P48546 22-466 S64P) with P43S, T95R

T7: GIPR G144S (Homo sapiens, UniProt P48546, G144S)
T7 construct: host or cells: HEK293
T7 sequence (P48546 22-466 G144S): T1 sequence (P48546 22-466 S64P) with P43S, G123S

B1: S64P (protein)
chain: T1 sequence (P48546 22-466 S64P)
B2: M67R (protein)
chain: T1 sequence (P48546 22-466 S64P) with P43S, M46R
B3: Y73H (protein)
chain: T1 sequence (P48546 22-466 S64P) with P43S, Y52H
B4: V99I (protein)
chain: T1 sequence (P48546 22-466 S64P) with P43S, V78I
B5: R101H (protein)
chain: T1 sequence (P48546 22-466 S64P) with P43S, R80H
B6: T116R (protein)
chain: T1 sequence (P48546 22-466 S64P) with P43S, T95R
B7: G144S (protein)
chain: T1 sequence (P48546 22-466 S64P) with P43S, G123S

The first assay addresses T1, GIPR S64P. Nature of the assay: cAMP accumulation. The class given is cell-based.
Details: not given
As to B1, the “Efficacy at 100pmol (cAMP)” value came out at 0.

The target of a further assay is T2, GIPR M67R. The assay can be described thus: cAMP accumulation. It is filed as cell-based.
Details: not given
Turning to B2, the “Efficacy at 100pmol (cAMP)” value was 0.1344.

For a further assay, the target named is T3, GIPR Y73H. Nature of the assay: cAMP accumulation. The class given is cell-based.
Details: not given
As for B3, the “Efficacy at 100pmol (cAMP)” value is listed as 0.06277.

Another assay concerns the target T4, GIPR V99I. The assay can be described thus: cAMP accumulation. The class given is cell-based.
Details: not given
Regarding B4, the “Efficacy at 100pmol (cAMP)” value was 0.04155.

A further assay addresses T5, GIPR R101H. The assay can be described thus: cAMP accumulation. It is filed as cell-based.
Details: not given
For B5, the “Efficacy at 100pmol (cAMP)” value worked out at 0.

A further assay addresses T6, GIPR T116R. Nature of the assay: cAMP accumulation.
Details: not given
The class given is cell-based.
Turning to B6, the “Efficacy at 100pmol (cAMP)” value was determined as 0.03526.

The target in a further assay is T7, GIPR G144S. The assay can be described thus: cAMP accumulation. It is filed as cell-based.
Details: not given
B7: the “Efficacy at 100pmol (cAMP)” value was found to be 0.204.

The test system of a further assay is GIPR variants (groups). Nature of the assay: cAMP accumulation. The note with it: cAMP part of the in vitro group. The class given is cell-based, human.
Experimental: HEK293 (CRL-1573, American Type Culture Collection) and β-arrestin 1/2 knockout cells, generated from HEK293A[48], were used for cAMP measurement, homologues competition binding and β-arrestin 2 recruitment. For the internalization assay, endosomal signalling and basal receptor localization experiments, HEK293A (R70507, Thermo Fisher) cells were used. Both cell lines were cultured at 5% CO2 at 37 °C in Roswell Park Memorial Institute GlutaMAX-I supplemented with 10% fetal bovine serum, 180 units ml^−1 penicillin, and 45 g ml^−1 streptomycin. For the cAMP and binding experiments, cells were transfected with the calcium phosphate precipitation method[49]. The polyethyleneimine (PEI) transfection method was used for the β-arrestin 2 recruitment assays[50], endosomal signalling and basal receptor localization assays, while the lipofectamine transfection method was used for the internalization assay.
cAMP production was measured with the DiscoverX Hithunter cAMP assay according to the manufacturer’s protocol (DiscoverX). […] On the day of the assay, the cells were washed twice with HEPES-buffered saline (HBS) and incubated with HBS and 1 mM 3-isobutyl-1-methylxanthine for 30 min at 37 °C. […] After the incubation, the assay medium was removed from the plate and the cells were washed with 30 µl PBS and treated with 40 µl enzyme donor–lysis buffer–chemiluminescent reagents and 10 µl cAMP antibodies for 60 min before 40 µl enzyme acceptor solution added. After a 3-h incubation on a shaking table in the dark, the cAMP accumulation was measured based on luminescence with a Perkin Elmer EnVision 2104 Multilabel Microplate Reader.
For cAMP accumulation, the data were fitted as a sigmoidal curve with a Hill slope of 1; for homologous competition binding, the data were fitted as a sigmoidal curve with a Hill slope of −1.
Consider B1, for which the “In vitro groups (cAMP)” value is on record as “LoF_camp”.
For the molecule B2, the “In vitro groups (cAMP)” value is reported as “LoF_camp”.
On the same count and under the same terms, in the case of B4 it was “LoF_camp”; in that of B3, “LoF_camp”; in that of B6, “LoF_camp”.
In the case of B7, the “In vitro groups (cAMP)” value is “LoF_camp”.
Same read-out and setting: in the case of B5 it was “LoF_camp”.

The assay is the same for the next values; noted with them: cAMP production compared with WT.
For B1, the percentage_camp is less than 50% cAMP.
The same measure, in the same setting: in the case of B2 it was less than 50% cAMP; in that of B4, less than 50% cAMP; in that of B3, less than 50% cAMP.
The same measure, in the same setting: the same measure for B6: less than 50% cAMP; for B7: less than 50% cAMP; for B5: less than 50% cAMP.

The same assay, now with this note: in vitro cAMP production per GIPR variant.
On to B1, for which the “Beta, cAMP” value stood at 0.
On the same count and under the same terms, the same measure for B2: 0.1344; for B4: 0.04155.
Same read-out and setting: the same measure for B3: 0.06277; for B6: 0.
The same measure, in the same setting: in the case of B7 it was 0.204; in that of B5, 0.

Another assay relates to GIPR variants (groups). The assay can be described thus: β-arrestin 2 recruitment (BRET).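 Further: BRET readout of β-arrestin 2 recruitment in transiently transfected HEK293 cells expressing WT GIPR or a GIPR variant plus GPCR kinase 2, Rluc8 donor and citrine acceptor.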 The conditions noted are these: arr part of the in vitro group.
For B1, the “In vitro groups (β-arrestin)” value is listed as “LoF_arr”.
The same measure, in the same setting: in the case of B2 it was “WT-like_arr”.
For the molecule B4, the “In vitro groups (β-arrestin)” value is “WT-like_arr”.
Still for that read-out and setting: in the case of B3 it was “WT-like_arr”.
On to B6, for which the “In vitro groups (β-arrestin)” value is “WT-like_arr”.
Still for that read-out and setting: in the case of B7 it was “LoF_arr”; in that of B5, “LoF_arr”.

Staying with this assay, now noted: in vitro β-arrestin recruitment per GIPR variant.
As for B1, the “Beta, Barr” value turned out to be 0.
Still for that read-out and setting: the same measure for B2: 1.452; for B4: 0.6225.
Still for that read-out and setting: the same measure for B3: 1.323; for B6: 0.6218; for B7: 0.
Same read-out and setting: the same measure for B5: 0.
